We go through six substances from patent publication US20200247894A1.

Like-named read-outs stand apart in the source and are kept apart here.

Experiment [1] deals with mouse IL-2Rγ endogenously expressed on MC/9 cells (mouse) (UniProt P34902). As to the kind of experiment: flow cytometry, 10 ug/ml isotype control, MC/9 cells (endogenous mouse IL-2Rg). In general terms: In flow cytometry, cells or beads pass a laser one at a time.
For experiment [2], the target named is human IL-2Rγ endogenously expressed on NK-92 and Jurkat cells (human) (UniProt P31785). As to the kind of experiment: flow cytometry, 10 ug/ml isotype control, NK-92 cells (endogenous human IL-2Rg).
Sequence of human IL-2Rγ endogenously expressed on NK-92 and Jurkat cells (human) (P31785 23-369): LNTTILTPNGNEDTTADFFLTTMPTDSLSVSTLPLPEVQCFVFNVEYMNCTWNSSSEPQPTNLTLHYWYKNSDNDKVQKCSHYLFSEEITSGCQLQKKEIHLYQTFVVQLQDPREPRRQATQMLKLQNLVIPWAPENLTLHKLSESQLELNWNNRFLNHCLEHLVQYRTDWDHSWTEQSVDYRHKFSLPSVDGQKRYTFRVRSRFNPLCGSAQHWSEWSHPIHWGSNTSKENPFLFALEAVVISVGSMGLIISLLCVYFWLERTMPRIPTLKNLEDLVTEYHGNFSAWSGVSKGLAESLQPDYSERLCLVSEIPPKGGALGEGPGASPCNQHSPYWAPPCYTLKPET
Experiment [3] has the same target. Described as above. The source holds these as a separate data set.
Experiment [4] shares this target. As to the kind of experiment: flow cytometry, 10 ug/ml isotype control, Jurkat cells (endogenous human IL-2Rg).
For experiment [5], the target named is human IL-2Rγ expressed on cells (human) (UniProt P31785). As to the kind of experiment: flow cytometry, isotype control at 10 µg/ml, MFI over unstained; upper end (NK-92 by Table 9-1).
Sequence of human IL-2Rγ expressed on cells (human) (P31785 23-369): as above
Experiment [6] has the same target. As to the kind of experiment: flow cytometry, isotype control at 10 µg/ml, MFI over unstained; lower end (Jurkat by Table 9-1).
Experiment [7] shares this target. As to the kind of experiment: flow cytometry on NK-92 cells, isotype control at 10 µg/ml, MFI over unstained; the end 2 belongs to HEK293 (negative control cells) by Table 9-2.
Experiment [8] addresses mouse IL-2Rγ endogenously expressed on MC/9 cells (mouse) (UniProt P34902). As to the kind of experiment: flow cytometry, secondary antibody alone (no primary), MC/9 cells (endogenous mouse IL-2Rg).
The target in experiment [9] is human IL-2Rγ endogenously expressed on NK-92 and Jurkat cells (human) (UniProt P31785). As to the kind of experiment: flow cytometry, secondary antibody alone (no primary), NK-92 cells (endogenous human IL-2Rg).
The target is the same in experiment [10]. Described as above. This is another data set of the same source.
The target is the same in experiment [11]. As to the kind of experiment: flow cytometry, secondary antibody alone (no primary), Jurkat cells (endogenous human IL-2Rg).
Experiment [12] concerns the target human IL2Rγ (endogenously expressed on cells) (human) (UniProt P31785). As to the kind of experiment: cell-based or functional assay.
For experiment [13] the target is unchanged. As to the kind of experiment: cell-based or functional assay. This is another data set of the same source.

Sequence of human IL2Rγ (endogenously expressed on cells) (human) (P31785 23-369): as above
Sequence of mouse IL-2Rγ endogenously expressed on MC/9 cells (mouse) (P34902 23-369): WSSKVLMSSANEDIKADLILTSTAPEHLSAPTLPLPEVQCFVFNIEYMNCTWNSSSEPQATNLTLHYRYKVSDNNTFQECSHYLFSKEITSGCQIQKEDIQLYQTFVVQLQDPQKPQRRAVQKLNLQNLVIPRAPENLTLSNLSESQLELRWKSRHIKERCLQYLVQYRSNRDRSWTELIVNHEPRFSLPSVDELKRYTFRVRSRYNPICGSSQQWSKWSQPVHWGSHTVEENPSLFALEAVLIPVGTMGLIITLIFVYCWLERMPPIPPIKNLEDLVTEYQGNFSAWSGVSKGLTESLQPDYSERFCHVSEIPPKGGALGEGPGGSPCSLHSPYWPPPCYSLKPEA

In the case of REGN1945 (antibody), the Binding Ratio (Sample over unstained MFIs) in experiment [1] is 1; in experiment [2] it was 13; in experiment [3], 1; in experiment [4], 1. The Raw MFI amounted to 196 MFI in experiment [1], 1890 MFI in [2], 223 MFI in [3] and 92 MFI in experiment [4]. The binding ratio was 13 in experiment [5], 1 in experiment [6] and 1 in experiment [7].
Consider “anti-human antibody conjugated to allophycocyanin (APC) (Jackson ImmunoResearch, #109-136-170)”, for which the Binding Ratio (Sample over unstained MFIs) in experiment [8], in experiment [9] and in experiment [11] was 1 in each case. For the same substance, the Raw MFI is 173 MFI in [8], 210 MFI in [9], 234 MFI in experiment [10] and 80 MFI in experiment [11].
Consider “human IL-2 (from UniProt P60568 21-153) (ligand)”, for which the EC50; IL-2 dose response; NK92/hIL7R/STAT3-luc in [12] is 33 pM; in experiment [13], 45 pM.
With “human IL-9 (from UniProt P15248 19-144) (ligand)”, the results for the EC50; IL-9 dose response; NK92/hIL7R/STAT3-luc in experiment [12] and in experiment [13] were 20 pM and 33 pM, respectively.
For “human IL-15 (from UniProt P40933 49-162) (ligand)”, the EC50; IL-15 dose response; NK92/hIL7R/STAT3-luc was found to be 150 pM in [12] and 230 pM in experiment [13].
On to “human IL-21 (from UniProt Q9HBE4 32-162) (ligand)”, for which the EC50; IL-21 dose response; NK92/hIL7R/STAT3-luc in experiment [12] came out at 3.1 pM; in experiment [13], 6 pM.
